Measured values from US20030186281A1, “Modified tetracycline repressor protein compositions and methods of use” (priority 2001, published 2003).

Tested on: tet operator sequence
Test: β-galactosidase activity of a tetracycline-regulated promoter in transformed E. coli with revTetR, in the presence and absence of anhydrotetracycline (atc)
Format: cell-based, Escherichia coli
Conditions: for β-Galactosidase Activity, Cultured Without ATC: RevTetR isolate cultured in the absence of anhydrotetracycline (ATC); for β-Galactosidase Activity, Cultured With ATC: RevTetR isolate cultured in the presence of anhydrotetracycline (ATC)
How it was run: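 TetR(BD) chimera mutants (TetR(B) residues 1–50, TetR(D) 51–208) expressed in E. coli regulating a tet operator-controlled lacZ. β-Galactosidase measured in Miller units at 28 °C and 37 °C with and without anhydrotetracycline; reported as percent of maximal expression without Tet repressor.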

B1: TetRrev6-37-1: revTetR(BD) G96R A97S V99L (protein)
chain: MSRLDKSKVINSALELLNEVGIEGLTTRKLAQKLGVEQPTLYWHVKNKRALLDALAVEILARHHDYSLPAAGESWQSFLRNNAMSFRRALLRYRDRSKLHLGTRPDEKQYDTVETQLRFMTENGFSLRDGLYAISAVSHFTLGAVLEQQEHTAALTDRPAAPDENLPPLLREALQIMDSDDGEQAFLHGLESLIRGFEVQLTALLQIV
modifications: Modified tetracycline repressor
notes: revTetR(BD) G96R A97S V99L
- β-Galactosidase Activity, Cultured Without ATC: 55.277
- β-Galactosidase Activity, Cultured With ATC: 20.04

B2: TetRrev6-38: revTetR(BD) Y93H G96W K98Q V99G (protein)
chain: MSRLDKSKVINSALELLNEVGIEGLTTRKLAQKLGVEQPTLYWHVKNKRALLDALAVEILARHHDYSLPAAGESWQSFLRNNAMSFRRALLRHRDWAQGHLGTRPDEKQYDTVETQLRFMTENGFSLRDGLYAISAVSHFTLGAVLEQQEHTAALTDRPAAPDENLPPLLREALQIMDSDDGEQAFLHGLESLIRGFEVQLTALLQIV
modifications: Modified tetracycline repressor
notes: revTetR(BD) Y93H G96W K98Q V99G
- β-Galactosidase Activity, Cultured Without ATC: 96.194
- β-Galactosidase Activity, Cultured With ATC: 46.91

B3: TetRrev4/6-6: revTetR(BD) D53Y V57V A61P (protein)
chain: MSRLDKSKVINSALELLNEVGIEGLTTRKLAQKLGVEQPTLYWHVKNKRALLYALAVEILPRHHDYSLPAAGESWQSFLRNNAMSFRRALLRYRDGAKVHLGTRPDEKQYDTVETQLRFMTENGFSLRDGLYAISAVSHFTLGAVLEQQEHTAALTDRPAAPDENLPPLLREALQIMDSDDGEQAFLHGLESLIRGFEVQLTALLQIV
modifications: Modified tetracycline repressor
notes: revTetR(BD) D53Y V57V A61P
- β-Galactosidase Activity, Cultured Without ATC: 67.879
- β-Galactosidase Activity, Cultured With ATC: 3.197

B4: TetRrev6-53: revTetR(BD) A97P K98R V99D (protein)
chain: MSRLDKSKVINSALELLNEVGIEGLTTRKLAQKLGVEQPTLYWHVKNKRALLDALAVEILARHHDYSLPAAGESWQSFLRNNAMSFRRALLRYRDGPRDHLGTRPDEKQYDTVETQLRFMTENGFSLRDGLYAISAVSHFTLGAVLEQQEHTAALTDRPAAPDENLPPLLREALQIMDSDDGEQAFLHGLESLIRGFEVQLTALLQIV
modifications: Modified tetracycline repressor
notes: revTetR(BD) A97P K98R V99D
- β-Galactosidase Activity, Cultured Without ATC: 107.107
- β-Galactosidase Activity, Cultured With ATC: 27.918

B5: TetRrev4/6-15: revTetR(BD) A56S I59A L60W V99V (protein)
chain: MSRLDKSKVINSALELLNEVGIEGLTTRKLAQKLGVEQPTLYWHVKNKRALLDALSVEAWARHHDYSLPAAGESWQSFLRNNAMSFRRALLRYRDGAKVHLGTRPDEKQYDTVETQLRFMTENGFSLRDGLYAISAVSHFTLGAVLEQQEHTAALTDRPAAPDENLPPLLREALQIMDSDDGEQAFLHGLESLIRGFEVQLTALLQIV
modifications: Modified tetracycline repressor
notes: revTetR(BD) A56S I59A L60W V99V
- β-Galactosidase Activity, Cultured Without ATC: 66.054
- β-Galactosidase Activity, Cultured With ATC: 7.647

B6: TetRrev4/6-10: revTetR(BD) A56S V99E (protein)
chain: MSRLDKSKVINSALELLNEVGIEGLTTRKLAQKLGVEQPTLYWHVKNKRALLDALSVEILARHHDYSLPAAGESWQSFLRNNAMSFRRALLRYRDGAKEHLGTRPDEKQYDTVETQLRFMTENGFSLRDGLYAISAVSHFTLGAVLEQQEHTAALTDRPAAPDENLPPLLREALQIMDSDDGEQAFLHGLESLIRGFEVQLTALLQIV
modifications: Modified tetracycline repressor
notes: revTetR(BD) A56S V99E
- β-Galactosidase Activity, Cultured Without ATC: 97.964
- β-Galactosidase Activity, Cultured With ATC: 6.149

B7: TetRrev4/6-24: revTetR(BD) A61T V99R (protein)
chain: MSRLDKSKVINSALELLNEVGIEGLTTRKLAQKLGVEQPTLYWHVKNKRALLDALAVEILTRHHDYSLPAAGESWQSFLRNNAMSFRRALLRYRDGAKRHLGTRPDEKQYDTVETQLRFMTENGFSLRDGLYAISAVSHFTLGAVLEQQEHTAALTDRPAAPDENLPPLLREALQIMDSDDGEQAFLHGLESLIRGFEVQLTALLQIV
modifications: Modified tetracycline repressor
notes: revTetR(BD) A61T V99R
- β-Galactosidase Activity, Cultured Without ATC: 95.596
- β-Galactosidase Activity, Cultured With ATC: 2.428

B8: TetRrev6-51: revTetR(BD) A97T V99G (protein)
chain: MSRLDKSKVINSALELLNEVGIEGLTTRKLAQKLGVEQPTLYWHVKNKRALLDALAVEILARHHDYSLPAAGESWQSFLRNNAMSFRRALLRYRDGTKGHLGTRPDEKQYDTVETQLRFMTENGFSLRDGLYAISAVSHFTLGAVLEQQEHTAALTDRPAAPDENLPPLLREALQIMDSDDGEQAFLHGLESLIRGFEVQLTALLQIV
modifications: Modified tetracycline repressor
notes: revTetR(BD) A97T V99G
- β-Galactosidase Activity, Cultured Without ATC: 93.974
- β-Galactosidase Activity, Cultured With ATC: 4.499

B9: TetRrev6-54: revTetR(BD) Y93F D95N V99F (protein)
chain: MSRLDKSKVINSALELLNEVGIEGLTTRKLAQKLGVEQPTLYWHVKNKRALLDALAVEILARHHDYSLPAAGESWQSFLRNNAMSFRRALLRFRNGAKFHLGTRPDEKQYDTVETQLRFMTENGFSLRDGLYAISAVSHFTLGAVLEQQEHTAALTDRPAAPDENLPPLLREALQIMDSDDGEQAFLHGLESLIRGFEVQLTALLQIV
modifications: Modified tetracycline repressor
notes: revTetR(BD) Y93F D95N V99F
- β-Galactosidase Activity, Cultured Without ATC: 6.393
- β-Galactosidase Activity, Cultured With ATC: 1.268

B10: TetRrev4/6-3: revTetR(BD) D95A V99G (protein)
chain: MSRLDKSKVINSALELLNEVGIEGLTTRKLAQKLGVEQPTLYWHVKNKRALLDALAVEILARHHDYSLPAAGESWQSFLRNNAMSFRRALLRYRAGAKGHLGTRPDEKQYDTVETQLRFMTENGFSLRDGLYAISAVSHFTLGAVLEQQEHTAALTDRPAAPDENLPPLLREALQIMDSDDGEQAFLHGLESLIRGFEVQLTALLQIV
modifications: Modified tetracycline repressor
notes: revTetR(BD) D95A V99G
- β-Galactosidase Activity, Cultured Without ATC: 69.291
- β-Galactosidase Activity, Cultured With ATC: 0.878

B11: TetRrev6-50: revTetR(BD) V99G (protein)
chain: MSRLDKSKVINSALELLNEVGIEGLTTRKLAQKLGVEQPTLYWHVKNKRALLDALAVEILARHHDYSLPAAGESWQSFLRNNAMSFRRALLRYRDGAKGHLGTRPDEKQYDTVETQLRFMTENGFSLRDGLYAISAVSHFTLGAVLEQQEHTAALTDRPAAPDENLPPLLREALQIMDSDDGEQAFLHGLESLIRGFEVQLTALLQIV
modifications: Modified tetracycline repressor
notes: revTetR(BD) V99G
- β-Galactosidase Activity, Cultured Without ATC: 60.464
- β-Galactosidase Activity, Cultured With ATC: 2.469

B12: TetRrev4/6-5: revTetR(BD) A54S V99R (protein)
chain: MSRLDKSKVINSALELLNEVGIEGLTTRKLAQKLGVEQPTLYWHVKNKRALLDSLAVEILARHHDYSLPAAGESWQSFLRNNAMSFRRALLRYRDGAKRHLGTRPDEKQYDTVETQLRFMTENGFSLRDGLYAISAVSHFTLGAVLEQQEHTAALTDRPAAPDENLPPLLREALQIMDSDDGEQAFLHGLESLIRGFEVQLTALLQIV
modifications: Modified tetracycline repressor
notes: revTetR(BD) A54S V99R
- β-Galactosidase Activity, Cultured Without ATC: 97.92
- β-Galactosidase Activity, Cultured With ATC: 5.7

B13: TetRrev4/6-25: revTetR(BD) I59S L60L R62G D95A V99L (protein)
chain: MSRLDKSKVINSALELLNEVGIEGLTTRKLAQKLGVEQPTLYWHVKNKRALLDALAVESLAGHHDYSLPAAGESWQSFLRNNAMSFRRALLRYRAGAKLHLGTRPDEKQYDTVETQLRFMTENGFSLRDGLYAISAVSHFTLGAVLEQQEHTAALTDRPAAPDENLPPLLREALQIMDSDDGEQAFLHGLESLIRGFEVQLTALLQIV
modifications: Modified tetracycline repressor
notes: revTetR(BD) I59S L60L R62G D95A V99L
- β-Galactosidase Activity, Cultured Without ATC: 102.926
- β-Galactosidase Activity, Cultured With ATC: 3.433

B14: TetRrev4/6-7: revTetR(BD) L55L L60V A97V V99G (protein)
chain: MSRLDKSKVINSALELLNEVGIEGLTTRKLAQKLGVEQPTLYWHVKNKRALLDALAVEIVARHHDYSLPAAGESWQSFLRNNAMSFRRALLRYRDGVKGHLGTRPDEKQYDTVETQLRFMTENGFSLRDGLYAISAVSHFTLGAVLEQQEHTAALTDRPAAPDENLPPLLREALQIMDSDDGEQAFLHGLESLIRGFEVQLTALLQIV
modifications: Modified tetracycline repressor
notes: revTetR(BD) L55L L60V A97V V99G
- β-Galactosidase Activity, Cultured Without ATC: 86.036
- β-Galactosidase Activity, Cultured With ATC: 2.151

B15: TetRrev4/6-17: revTetR(BD) G99R V99L L101I (protein)
chain: MSRLDKSKVINSALELLNEVGIEGLTTRKLAQKLGVEQPTLYWHVKNKRALLDALAVEILARHHDYSLPAAGESWQSFLRNNAMSFRRALLRYRDRAKLHIGTRPDEKQYDTVETQLRFMTENGFSLRDGLYAISAVSHFTLGAVLEQQEHTAALTDRPAAPDENLPPLLREALQIMDSDDGEQAFLHGLESLIRGFEVQLTALLQIV
modifications: Modified tetracycline repressor
notes: revTetR(BD) G99R V99L L101I
- β-Galactosidase Activity, Cultured Without ATC: 54.403
- β-Galactosidase Activity, Cultured With ATC: 2.601

B16: TetRrev4/6-4: revTetR(BD) D95A V99G V57V A61G (protein)
chain: MSRLDKSKVINSALELLNEVGIEGLTTRKLAQKLGVEQPTLYWHVKNKRALLDALAVEILGRHHDYSLPAAGESWQSFLRNNAMSFRRALLRYRAGAKGHLGTRPDEKQYDTVETQLRFMTENGFSLRDGLYAISAVSHFTLGAVLEQQEHTAALTDRPAAPDENLPPLLREALQIMDSDDGEQAFLHGLESLIRGFEVQLTALLQIV
modifications: Modified tetracycline repressor
notes: revTetR(BD) D95A V99G V57V A61G
- β-Galactosidase Activity, Cultured Without ATC: 96.491
- β-Galactosidase Activity, Cultured With ATC: 1.639
